Source: article PMC2746243

Target: mutant M9R α-tropomyosin_(slow) (human) (UniProt P06753)
Assay: far-Western, overlay or dot blot

Sequence of UniProt P06753 (P06753 whole entry M9R): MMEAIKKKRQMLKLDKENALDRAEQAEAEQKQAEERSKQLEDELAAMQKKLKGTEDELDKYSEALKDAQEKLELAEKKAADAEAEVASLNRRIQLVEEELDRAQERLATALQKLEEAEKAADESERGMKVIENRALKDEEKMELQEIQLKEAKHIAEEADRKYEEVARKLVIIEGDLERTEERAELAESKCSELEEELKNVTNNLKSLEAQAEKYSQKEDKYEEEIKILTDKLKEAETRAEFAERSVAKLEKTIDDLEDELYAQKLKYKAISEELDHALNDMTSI

percent of the binding to wild-type α-tropomyosin (slow): 10%
Substance: Recombinant human Tmod1 protein (from UniProt P28289 1-359) (natural protein)
